Values of other authors in publication PMC6685676.
Where two headings read alike, the source gives them in different places.

Assays:
[1] = molecular target: angiotensin III (Homo sapiens) (UniProt P01019)
[2] = molecular target: angiotensin III (Homo sapiens) (UniProt P01019); remark: listed apart in the source

Chain of UniProt P01019 (P01019 whole entry, looked up): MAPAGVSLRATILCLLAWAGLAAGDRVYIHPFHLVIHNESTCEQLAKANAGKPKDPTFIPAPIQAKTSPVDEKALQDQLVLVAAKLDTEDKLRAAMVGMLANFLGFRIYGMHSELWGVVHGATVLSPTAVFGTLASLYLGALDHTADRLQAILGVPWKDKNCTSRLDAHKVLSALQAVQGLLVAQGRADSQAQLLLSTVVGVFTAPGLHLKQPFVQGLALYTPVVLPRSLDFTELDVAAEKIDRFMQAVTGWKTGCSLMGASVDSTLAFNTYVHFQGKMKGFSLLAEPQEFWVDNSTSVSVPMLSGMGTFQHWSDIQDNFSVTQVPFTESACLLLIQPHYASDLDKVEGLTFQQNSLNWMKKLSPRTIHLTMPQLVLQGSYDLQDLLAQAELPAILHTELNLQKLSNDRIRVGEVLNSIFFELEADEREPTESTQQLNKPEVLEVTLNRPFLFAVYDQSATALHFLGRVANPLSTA

| Ki [1] [nM] | Ki [2] [nM] | Substance |
| --- | --- | --- |
| 88 |  | DPP3 (from UniProt Q9NY33) |
|  | 24 | DPP3 (from UniProt O55096) |
